In patent publication US20210032312A1 (Janssen / Centocor, published 2021):

Key:
[1] = target: T1, In house human CD8A-Fc (human, UniProt P01732 22-182, limits assumed); assay: SPR (ProteOn), captured hCD8A-Fc
T1 construct: Captured on goat anti-human Fc on a ProteOn GLC chip; also called hCD8A-Fc; recombinant human CD8 alpha; not shown: linker with flag (and polyhistidine) tag and Fc of human IgG1
Procedure: Purified anti-CD8A FN3 domains were subjected to off-rate analysis using a Proteon surface plasmon resonance instrument in order to pick clones with the slowest off-rates for further characterization.
The immobilized GAH-Fc IgG densities averaged about 6000 Response Units (Ru) with less than 1% variation among different channels. In house human CD8A-Fc was captured in vertical orientation at 3 different ligand densities, 10, 5, 2.5 μg/ml for 5 minutes at 30 ul/minute flowrate. All FN3 domains were normalized to a 3 μM concentration, and tested for binding in horizontal orientation. All 6 analyte channels were used for FN3 domains to maximize the screening throughput. The dissociation phase was monitored for 15 minutes at a flow rate of 100 μl/min using PBST as running buffer. […] Data analyses were performed using Bio-Rad ProteOn Manager software (version 3.1.0.6). Raw data were double referenced by subtraction of the interspot (empty chip surface, no protein immobilized or captured) signals to correct the non-specific binding of the FN3 domain to the pre-coated GAH-Fc IgG surface, followed by a double correction using empty channel L6 where no hCD8A-Fc was captured. The processed binding data were locally fit to a 1:1 simple Langmuir binding model to extract the koff for each FN3 domain binding to captured hCD8A-Fc.

[2] = target: T2, cynomolgus monkey CD8A on primary cynomolgus monkey CD8+ T cells (cynomolgus monkey, UniProt P01732 23-235 (human entry)); assay: flow cytometry, cyno CD8+ T cells, 0.2 uM FN3
T2 construct: also called Cyno CD8alpha
Procedure: (§1) Binding of the 190 ELISA hits to human and cynomologous monkey primary CD8 T cells was assessed by flow cytometry. The FN3 domain molecules were diluted to 2 μM and 0.2 μM in PBS and incubated with human or cynomologous monkey CD8+ T cells in 96-well format. After 1 hour at 4 C, the cells were washed once with PBS and then resuspended with an anti-FN3 domain antibody (PAB25) solution. Following this incubation, the cells were washed twice with PBS and a PE conjugated secondary antibody and a viability dye were added. Finally, cells were washed and resuspended in PBS for flow cytometric analysis using a BD Canto Instrument. Cells were gating on live cells and median fluorescence intensity of the bound Centyrins (PE channel) was calculated using Cytobank software.

[3] = target: T3, human CD8 alpha (CD8A) on primary human CD8+ T cells (human, UniProt P01732 22-235); assay: flow cytometry, human CD8+ T cells, 2 uM FN3
T3 construct: whole, on cells; also called hCD8A
Procedure: as §1

[4] = target: T3, human CD8 alpha (CD8A) on primary human …; assay: flow cytometry, human CD8+ T cells, 0.2 uM FN3
Procedure: as §1

[5] = target: T2, cynomolgus monkey CD8A on primary …; assay: flow cytometry, cyno CD8+ T cells, 2 uM FN3
Procedure: as §1

T1 sequence (P01732 22-182 limits assumed): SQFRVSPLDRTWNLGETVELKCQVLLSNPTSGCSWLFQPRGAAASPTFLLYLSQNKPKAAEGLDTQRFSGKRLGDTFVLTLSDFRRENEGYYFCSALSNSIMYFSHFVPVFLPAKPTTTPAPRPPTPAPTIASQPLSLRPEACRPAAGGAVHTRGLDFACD
T3 sequence (P01732 22-235): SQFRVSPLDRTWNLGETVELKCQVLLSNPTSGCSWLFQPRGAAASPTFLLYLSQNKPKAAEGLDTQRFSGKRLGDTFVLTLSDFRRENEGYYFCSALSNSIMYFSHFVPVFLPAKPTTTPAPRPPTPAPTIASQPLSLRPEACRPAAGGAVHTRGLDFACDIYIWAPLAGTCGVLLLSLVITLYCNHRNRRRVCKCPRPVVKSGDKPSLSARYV
T2 sequence (P01732 other isoform, or with tags, fused parts or gaps limits assumed): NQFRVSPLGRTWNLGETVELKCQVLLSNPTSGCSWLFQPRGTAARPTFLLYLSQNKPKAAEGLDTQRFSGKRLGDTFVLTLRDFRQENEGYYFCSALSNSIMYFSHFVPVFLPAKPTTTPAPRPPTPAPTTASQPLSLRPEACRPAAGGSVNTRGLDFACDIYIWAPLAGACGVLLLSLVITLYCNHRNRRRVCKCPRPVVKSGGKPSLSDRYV

Row | Binder | koff [1] [s⁻¹] | Cyno T-cell Binding 0.2 uM (MFI) [2] [MFI] | Human T-cell Binding 2 uM (MFI) [3] [MFI] | Human T-cell Binding 0.2 uM (MFI) [4] [MFI] | Cyno T-cell Binding 2 uM (MFI) [5] [MFI]
1 | P282DR9P1359_F5 (designed binder, FN3 domain) LPAPKNLVVSRVTEDSARLSWTAPDAAFDSFQIAYPEWPPPGEAIVLTVPGSERSYDLTGLKPGTEYFVIIQGVKGGVESWPLSAIFTT | 9.02e-05 | 34700 | 48900 | 8480 | 114000
2 | P282DR9P1359_D12 (designed binder, FN3 domain) LPAPKNLVVSRVTEDSARLSWTAPDAAFDSFRIAYPETATWGEAIVLTVPGSERSYDLTGLKPGTEYFVIIYGVKGGFESAPLSAIFTT | 0.00193 | 1750 | 4540 | 542 | 37100
3 | P282DR9P1359_E3 (designed binder, FN3 domain) LPAPKNLVVSRVTEDSARLSWTAPDAAFDSFAIAYPELPLGGEAIVLTVPGSERSYDLTGLKPGTEYFVIIYGVKGGVESFPLSAIFTT | 0.00263 | 1620 | 4310 | 349 | 52400
4 | P282CR9P1358_C5 (designed binder, FN3 domain) LPAPKNLVVSRVTEDSARLSWTAPDAAFDSFLIAYPEWPDSGEAIVLTVPGSERSYDLTGLKPGTEYAVFIWGVKGGPLSHPLSAIFTT | 0.000999 | 1830 | 2710 | 511 | 25700
5 | P282CR9P1358_F5 (designed binder, FN3 domain) LPAPKNLVVSRVTEDSARLSWTAPDAAFDSFWISYPEWPPDGEAIVLTVPGSERSYDLTGLKPGTEYFVIIWGVKGGETSAPLSAIFTT | 0.000637 | 13700 | 24400 | 3070 | 85700
6 | P282DR9P1359_E6 (designed binder, FN3 domain) LPAPKNLVVSRVTEDSARLSWTAPDAAFDSFWIAYPEWPVQGEAIVLTVPGSERSYDLTGLKPGTEYFVVIQGVKGGTPSWPLSAIFTT | 0.00171 | 5060 | 20500 | 1260 | 61700
7 | P282CR9P1358_D10 (designed binder, FN3 domain) LPAPKNLVVSRVTEDSARLSWTAPDAAFDSFLISYPEYPPPGEAIVLTVPGSERSYDLTGLKPGTEYFVIIFGVKGGDTSWPLSAIFTT | 0.000311 | 4070 | 28600 | 2760 | 74100
8 | P282DR9P1359_A12 (designed binder, FN3 domain) LPAPKNLVVSRVTEDSARLSWTAPEAAFDSFQIAYPEWPPPREAIVLTVPGSERSYDLTGLKPGTEYFVVIQGVKGGEISWPLSAIFTT | 8.12e-05 | 15500 | 32200 | 5950 | 88000
9 | P282DR9P1359_C12 (designed binder, FN3 domain) LPAPKNLVVSRVTEDSARLSWTAPDAAFDSFYISYPEWPVPGEAIVLTVPGSERSYDLTGLKPGTEYWVVIYGVKGGALSVPLSAIFTT | 0.000978 | 3640 | 15100 | 944 | 66500
10 | P282DR9P1359_C10 (designed binder, FN3 domain) LPAPKNLVVSRVTEDSARLSWTAPDAAFDSFAIVYPEWPTDGEAIVLTVPGSERSYDLTGLKPGTEYAVFIWGVKGGNQSWPLSAIFTT | 0.000991 | 15100 | 27800 | 2880 | 98500
11 | P282DR9P1359_E5 (designed binder, FN3 domain) LPAPKNLVVSRVTEDSARLSWTAPDAAFDSFAISYPEWPVPGEAIVLTVPGSERSYDLTGLKPGTEYFVIIYGVKGGLYSAPLSAIFTT | 0.00101 | 13600 | 24100 | 1950 | 81200
12 | P282DR9P1359_C11 (designed binder, FN3 domain) LPAPKNLVVSRVTEDSARLSWTAPDAAFDSFKIAYPEFPPPGEAIVLTVPGSERSYDLTGLKPGTEYYVIIIGVKGGTDSWPLSAIFTT | 0.00216 | 457 | 18200 | 1290 | 19900
13 | P282DR9P1359_E8 (designed binder, FN3 domain) LPAPKNLVVSRVTEDSARLSWTAPDAAFDSFQIAYPEWPVIGEAIVLTVPGSERSYDLTGLKPGTEYWVIIQGVKGGYTSWPLSAIFTT | 0.00119 | 16900 | 26100 | 2920 | 81000
14 | P282CR9P1358_C2 (designed binder, FN3 domain) LPAPKNLVVSRVTEDSARLSWTAPDAAFDSFKIAYPEWPSNGEAIVLTVPGSERSYDLTGLKPGTEYAVFIWGVKGGAFSNPLSAIFTT | 0.00113 | 7050 | 10100 | 1060 | 55800
15 | P282DR9P1359_A8 (designed binder, FN3 domain) LPAPKNLVVSRVTEDSARLSWTAPDAAFDSFRIAYPEWPVQGEAIVLTVPGSERSYDLTGLKPGTEYFVIIYGVKGGELSPPLSAIFTT | 0.000638 | 7770 | 21100 | 2110 | 70300
16 | P282BR9P1357_G9 (designed binder, FN3 domain) LPAPKNLVVSRVTEDSARLSWPIASQIHSPFDSFLIQYQESEKVGEAIVLTVPGSERSYDLTGLKPGTEYTVSIYGVDVKYDIDSRPISSNPLSAIFTT | 0.000304 | 4640 | 12700 | 2800 | 41500
17 | P283BR9P1363_B2 (designed binder, FN3 domain) LPAPKNLVVSRVTEDSARLSWASTVDPHPRFDSFLIQYQESEKVGEAIVLTVPGSERSYDLTGLKPGTEYTVSIYGVDVKYDIDSRPISSNPLSAIFTT | 0.000208 | 2820 | 8360 | 2400 | 14800
